Measurements published in the DeepSol protein solubility set.

Experiment: soluble on expression in E. coli; label from the status in PepcDB or PDB records

| Sequence | soluble on expression in E. coli |
| --- | --- |
| MIKDQDAEFHVTDSDPTWAETNFFGFFNAEHKLNVGVYALFRPNLGVVSSTICMNSGRAVTPWEADFCDLRSAMPIPTPRSLLDYKLLNTLHVHCLDPNRVWHIGYDDQQGTRIDVRYEALMPAFDIHDPEMDPMCGSESEAGKFAWGTAYDGHFDQTGHFKGSVAIRGREVPIDCVSTMDHSWGARPERGKPNMSWLHAHFSKDLAVHGIFGFDQTRNGVELWLAHGYVMERGRIVGLKAGTGQVERPQERYPEQLQLQVTDAKDRVWKLRGRALTTFPWQCWPNMISFNSLCAWEMNGLKGHGEVQDFFELPQLNALNSVESTRRPSRPL | not soluble |
| MSLTQSSKLIAVIVANIDDYFSTELFKGISSILESRGYIGVLFDANADIEREKTLLRAIGSRGFDGLILQSFSNPQTVQEILHQQMPVVSVDREMDACPWPQVVTDNFEAAKAATTAFRQQGYQHVVVLTSELELSRTRQERYRGILAAAQDVDVLEVSESSYNHSEVHQRLTQLITQNDQKTVAFALKERWLLEFFPNLIISGLIDNQTVTATGFADTDFIRRMEPKLTLITQNPFLMGASSAEIMLRQLAGEKVAPEKMVIPAKLQEGHHHHHH | soluble |
| MKIAILGAGCYRTHAAAGITNFMRACEVAKEVGKPEIALTHSSITYGAELLHLVPDVKEVIVSDPCFAEEPGLVVIDEFDPKEVMEAHLSGNPESIMPKIREVVKAKAKELPKPPKACIHLVHPEDVGLKVTSDDREAVEGADIVITWLPKGNKQPDIIKKFADAIPEGAIVTHAATIPTTKFAKIFKDLGREDLNITSYHPGCVPEMKGQVYIAEGYASEEAVNKLYEIGKIARGKAFKMPANLIGPVCDMCSAVTATVYAGLLAYRDAVTKILGAPADFAQMMADEALTQIHNLMKEKGIANMEEALDPAALLGTADSMCFGPLAEILPTALKVLEKHKVVEEEGKTKCEIMSQKE | soluble |
| PYHGKSKPNKETFVCDLKTSLSNEAIGYIGKANTVGILLSGGMDSRVVAGVVRDLQKNNRSISVVGITWGNANSRDVIYSQRICQQFGWEFVHFPITAETLHKNIQLSAKMGAEVSALHFHAMSDVADLKGVDVILAGSYGDSVGRAEFSGKHVTKLSSVLPSRINNLGLIKDELFQSALESIRNDAQLPAFHNAGDNNLRKYEIEQECHYMRRMLQSCMHVVAEKIPFYQMFTAPSVFGLMWGLEPNIRNNDWYVELLNILPGQLLQIPWARTGILYHLPEGTADEFDKSYHQYGLWLKTELKDEMLNAMNSKSIRELGIFN | not soluble |
| MDHLDDLVDLYEYRVEDLLQGRTPKGGKQALLRLRQLLIQSRLPGPLAKRFRQADARFRAQRRALAPEAQAPVELPAIAVPEEPEPPPPEASPLAALALKVWRLQVERDVKARLEALLAGRREELRLIHAFLDNFALYRETPGFKRDFNLSRFVPTRPIPSLSDTLVDLDDPKVAQALVVDFLETARELPKLLPLPPEETRTYVRRFLNRLLEWEGAYNLPPKPDLPALRRALEEARRLGAGEKEVAQLEERLRKAAQEARRRDLLLEEEKGRFRVALEKVVALLSLLPTPQGETPWPRVPEPGQEEEGLLTLRLAPGPVALGPLTLTLSHAGGTWYLGLEGEDHPLEDTLVLPWEDLEVWAVRENDLLHLRLEARSGLRLYELLAEGRLLAYLLHPGKDYAYLRLLRGLSTRLKGEFQAQAFGPALAEKYRKAPEEALQDFARKGLELTLKRLGQADPLPLLQEVGQALGLEAEAQTLGQALREYLGRRPPTRETLGGEVHFLALTPEPQALKLDQHVLSVRLKEDAVYLGQAGEVPRRLKDLLVYRLGERALVLAREGRRLAYTLLPLP | soluble |
| MVAQNSVVVIGASGFGRESLDVLEAMKEAGHSLEIIGVVDDNPAAINLQRLAERKIEYLGTLKEWIEGSPKSCKYVLAIGNPTIRHKLSALLDKSGFDAFTAVHPSAVIGSQVVFGSGAVVCSGAVISTNVRLGVHVHINPNVTIGHDSILEDYVSINPAATISGEVLIMEETLIGAAATVLQGLTIGNRSLVGASSCVTKDISAGKVVKGIPARLEHHHHHH | soluble |
| MTNAGTTDLSWLPSDADEQLALGFKIVTNAYKTRVTSQEAEIRSLKGQLTEKQEQLSSIQKKYSNLEVQLIESTQRGNQLADENKQLITTIKKLNRDIDRLENLKKAVLNSIQEEHDVEDAHKYYSADDLLQTTAPRTMLEMNGNEDSCQSIINKIVNSDTHNIINGSFNSPYIGNVPLGEKNTDGRAFFRNARSRLSYEQFNQFLSNIKKLNNHQQKREETLKKAQAIFGEANLDLYEEFKVLISKHS | not soluble |
